Values quoted from earlier work in PMC6615999.
pKd: −log10 of the molar value.

Biological target: PKR (Homo sapiens) (UniProt P19525)

pKd: 3.30
Substance: PKR (from UniProt P19525)
